Results: patent publication US20220411483A1 (Chugai, published 2022)

T1: FcγRIIa R type extracellular domain with C-terminal His tag (human, UniProt P12318 34-217)
T1 construct: extracellular domain; also called FcgRIIaR
T1 sequence (looked up): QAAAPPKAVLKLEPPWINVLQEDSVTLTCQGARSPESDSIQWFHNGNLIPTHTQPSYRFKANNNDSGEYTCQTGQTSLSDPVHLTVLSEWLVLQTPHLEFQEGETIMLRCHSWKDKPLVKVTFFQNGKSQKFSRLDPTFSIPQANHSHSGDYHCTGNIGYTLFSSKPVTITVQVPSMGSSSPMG

T2: FcγRIIa R type extracellular domain with C-terminal His tag (human, UniProt P12318 34-217)
T2 construct: extracellular domain; also called FcgRIIaR; not shown: His tag at the C terminus
T2 sequence (looked up): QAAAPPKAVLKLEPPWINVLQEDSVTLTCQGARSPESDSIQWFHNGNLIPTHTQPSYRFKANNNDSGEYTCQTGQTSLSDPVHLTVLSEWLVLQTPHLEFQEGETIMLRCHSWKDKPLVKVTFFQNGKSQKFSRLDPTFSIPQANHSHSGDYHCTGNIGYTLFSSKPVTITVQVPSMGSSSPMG

T3: FcγRIIa H type extracellular domain with C-terminal His tag (human, UniProt P12318 34-217)
T3 construct: extracellular domain; also called FcgRIIaH; not shown: His tag at the C terminus
T3 sequence (looked up): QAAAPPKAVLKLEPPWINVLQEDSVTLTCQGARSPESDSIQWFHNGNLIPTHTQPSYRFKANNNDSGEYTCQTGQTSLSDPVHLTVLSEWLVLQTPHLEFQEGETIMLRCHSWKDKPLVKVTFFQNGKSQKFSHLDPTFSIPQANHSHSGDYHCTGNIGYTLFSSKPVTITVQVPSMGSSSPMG

T4: FcγRIIb extracellular domain with C-terminal His tag (human, UniProt P31994 43-217)
T4 construct: extracellular domain; also called FcgRIIb; not shown: His tag at the C terminus
T4 sequence (looked up): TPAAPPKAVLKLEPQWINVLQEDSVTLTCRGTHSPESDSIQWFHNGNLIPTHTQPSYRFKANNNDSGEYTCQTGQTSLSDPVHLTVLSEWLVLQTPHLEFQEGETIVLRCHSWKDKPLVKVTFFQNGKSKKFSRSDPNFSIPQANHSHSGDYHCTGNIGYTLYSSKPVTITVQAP


Key:
[1] = molecular target: T1, FcγRIIa R type extracellular domain …; experiment: SPR (Biacore), FcgR as analyte
[2] = molecular target: T5, FcγRIa extracellular domain with C-terminal His tag (human, UniProt P12314 16-292); experiment: SPR, antibody captured, FcgR analyte
T5 construct: also called FcgRIa; CD64; not shown: His tag at the C terminus
T5 sequence (P12314 16-292): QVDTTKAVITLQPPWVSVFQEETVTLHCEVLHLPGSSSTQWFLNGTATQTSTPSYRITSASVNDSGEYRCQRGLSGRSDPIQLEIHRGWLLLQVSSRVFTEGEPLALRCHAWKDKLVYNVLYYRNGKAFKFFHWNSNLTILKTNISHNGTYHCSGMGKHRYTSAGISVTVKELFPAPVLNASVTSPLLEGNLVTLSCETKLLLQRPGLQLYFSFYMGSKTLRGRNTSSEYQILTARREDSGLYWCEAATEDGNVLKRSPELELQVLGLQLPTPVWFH

[3] = molecular target: T2, FcγRIIa R type extracellular domain …; experiment: SPR, antibody captured, FcgR analyte
[4] = molecular target: T3, FcγRIIa H type extracellular domain …; experiment: SPR, antibody captured, FcgR analyte
[5] = molecular target: T4, FcγRIIb extracellular domain with …; experiment: SPR, antibody captured, FcgR analyte
[6] = molecular target: T2, FcγRIIa R type extracellular domain …; experiment: SPR; KD of IL6R-B3/IL6R-L divided by KD of variant
[7] = molecular target: T4, FcγRIIb extracellular domain with …; experiment: SPR; KD of IL6R-B3/IL6R-L divided by KD of variant

Kd [1] | Kd [2] | Kd [3] | Kd [4] | Kd [5] | Relative FcgRIIaR-binding Activity [6] | Relative FcgRIIb-binding Activity [7] | Binder
 | 25 nM | 340 nM | 5000 nM | 7.6 nM | 3.2 | 405 | IL6R-BP550/IL6R-L (antibody, human IgG1, kappa, name in EU numbering, human IgG1) heavy: QVQLQESGPGLVKPSETLSLTCAVSGHSISHDHAWSWVRQPPGEGLEWIGFISYSGITNYNPSLQGRVTISRDNSKNTLYLQMNSLRAEDTAVYYCARSLARTTAMDYWGEGTLVTVSSASTKGPSVFPLAPSSKSTSGGTAALGCLVKDYFPEPVTVSWNSGALTSGVHTFPAVLQSSGLYSLSSVVTVPSSSLGTQTYICNVNHKPSNTKVDKKVEPKSCDKTHTCPPCPAPELLGDDSVFLFPPKPKDTLMISRTPEVTCVVIDVGEEDGDVKFNWYVDGVEVHNAKTKPREEQDNSTYRVVSVLTVLHQDWLNGKEYKCKVSNKALPRPIEKTISKAKGQPREPQVYTLPPSRDELTKNQVSLTCLVKGFYPSDIAVEWESNGQPENNYKTTPPVLDSDGSFFLYSKLTVDKSRWQQGNVFSCSVMHEALHNHYTQESLSLSP light: not shown
 | 12 nM | 460 nM | 8300 nM | 16 nM | 2.4 | 196 | IL6R-BP563/IL6R-L (antibody, human IgG1, kappa, name in EU numbering, human IgG1) heavy: QVQLQESGPGLVKPSETLSLTCAVSGHSISHDHAWSWVRQPPGEGLEWIGFISYSGITNYNPSLQGRVTISRDNSKNTLYLQMNSLRAEDTAVYYCARSLARTTAMDYWGEGTLVTVSSASTKGPSVFPLAPSSKSTSGGTAALGCLVKDYFPEPVTVSWNSGALTSGVHTFPAVLQSSGLYSLSSVVTVPSSSLGTQTYICNVNHKPSNTKVDKKVEPKSCDKTHTCPPCPAPDLLGDDSVFLFPPKPKDTLMISRTPEVTCVVVDVSEEDGDVKFNWYVDGVEVHNAKTKPREEQDNSTYRVVSVLTVLHQDWLNGKEYKCKVSNKALPRPIEKTISKAKGQPREPQVYTLPPSRDELTKNQVSLTCLVKGFYPSDIAVEWESNGQPENNYKTTPPVLDSDGSFFLYSKLTVDKSRWQQGNVFSCSVMHEALHNHYTQESLSLSP light: not shown
 | 2.4 nM | 230 nM | 4700 nM | 5.5 nM | 4.7 | 563 | IL6R-BP565/IL6R-L (antibody, human IgG1, kappa, name in EU numbering, human IgG1) heavy: QVQLQESGPGLVKPSETLSLTCAVSGHSISHDHAWSWVRQPPGEGLEWIGFISYSGITNYNPSLQGRVTISRDNSKNTLYLQMNSLRAEDTAVYYCARSLARTTAMDYWGEGTLVTVSSASTKGPSVFPLAPSSKSTSGGTAALGCLVKDYFPEPVTVSWNSGALTSGVHTFPAVLQSSGLYSLSSVVTVPSSSLGTQTYICNVNHKPSNTKVDKKVEPKSCDKTHTCPPCPAPDLLGDDSVFLFPPKPKDTLMISRTPEVTCVVVDVAEEDGEVKFNWYVDGVEVHNAKTKPREEQDNSTYRVVSVLTVLHQDWLNGKEYKCKVSNKALPRPIEKTISKAKGQPREPQVYTLPPSRDELTKNQVSLTCLVKGFYPSDIAVEWESNGQPENNYKTTPPVLDSDGSFFLYSKLTVDKSRWQQGNVFSCSVMHEALHNHYTQESLSLSP light: not shown
 | 55 nM | 200 nM | 3000 nM | 5.3 nM | 5.3 | 585 | IL6R-BP538/IL6R-L (antibody, human IgG1, kappa, name in EU numbering, human IgG1) heavy: QVQLQESGPGLVKPSETLSLTCAVSGHSISHDHAWSWVRQPPGEGLEWIGFISYSGITNYNPSLQGRVTISRDNSKNTLYLQMNSLRAEDTAVYYCARSLARTTAMDYWGEGTLVTVSSASTKGPSVFPLAPSSKSTSGGTAALGCLVKDYFPEPVTVSWNSGALTSGVHTFPAVLQSSGLYSLSSVVTVPSSSLGTQTYICNVNHKPSNTKVDKKVEPKSCDKTHTCPPCPAPELLGDDSVFLFPPKPKDTLMISRTPEVTCVVIDVSEEDGEVKFNWYVDGVEVHNAKTKPREEQYNSTYRVVSVLTVLHQDWLNGKEYKCKVSNKALPRPIEKTISKAKGQPREPQVYTLPPSRDELTKNQVSLTCLVKGFYPSDIAVEWESNGQPENNYKTTPPVLDSDGSFFLYSKLTVDKSRWQQGNVFSCSVMHEALHNHYTQESLSLSP light: not shown

The next lines start with the binder.

Binder | Kd [1] | Kd [2] | Kd [3] | Kd [4] | Kd [5] | Relative FcgRIIaR-binding Activity [6] | Relative FcgRIIb-binding Activity [7]
IL6R-2B253/IL6R-L (antibody, human IgG1, kappa, name in EU numbering, IgG1; alterations on IL6R-B3, EU numbering) heavy: QVQLQESGPGLVKPSETLSLTCAVSGHSISHDHAWSWVRQPPGEGLEWIGFISYSGITNYNPSLQGRVTISRDNSKNTLYLQMNSLRAEDTAVYYCARSLARTTAMDYWGEGTLVTVSSASTKGPSVFPLAPSSKSTSGGTAALGCLVKDYFPEPVTVSWNSGALTSGVHTFPAVLQSSGLYSLSSVVTVPSSSLGTQTYICNVNHKPSNTKVDKKVEPKSCDKTHTCPPCPAPDLLGGDSVFLFPPKPKDTLMISRTPEVTCVVVDVSHEDPEVKFNWYVDGVEVHNAKTKPREEQYNSTYRVVSVLTVLHQDWLNGKEYKCKMSNKALPAPIEKTISKAKGQPREPQVYTLPPSRDELTKNQVSLTCLVKGFYPSDIAVEWESNGQPENNYKTTPPVLDSDGSFFLYSKLTVDKSRWQQGNVFSCSVMHEALHNHYTQESLSLSP light: not shown | 5000 nM |  |  |  |  |  | 
IL6R-BP539/IL6R-L (antibody, human IgG1, kappa, name in EU numbering, human IgG1) heavy: QVQLQESGPGLVKPSETLSLTCAVSGHSISHDHAWSWVRQPPGEGLEWIGFISYSGITNYNPSLQGRVTISRDNSKNTLYLQMNSLRAEDTAVYYCARSLARTTAMDYWGEGTLVTVSSASTKGPSVFPLAPSSKSTSGGTAALGCLVKDYFPEPVTVSWNSGALTSGVHTFPAVLQSSGLYSLSSVVTVPSSSLGTQTYICNVNHKPSNTKVDKKVEPKSCDKTHTCPPCPAPELLGDDSVFLFPPKPKDTLMISRTPEVTCVVIDVGEEDGPVKFNWYVDGVEVHNAKTKPREEQDNSTYRVVSVLTVLHQDWLNGKEYKCKVSNKALPRPIEKTISKAKGQPREPQVYTLPPSRDELTKNQVSLTCLVKGFYPSDIAVEWESNGQPENNYKTTPPVLDSDGSFFLYSKLTVDKSRWQQGNVFSCSVMHEALHNHYTQESLSLSP light: not shown |  | 64 nM | 330 nM | 5600 nM | 8.4 nM | 3.3 | 368
IL6R-BP551/IL6R-L (antibody, human IgG1, kappa, name in EU numbering, human IgG1) heavy: QVQLQESGPGLVKPSETLSLTCAVSGHSISHDHAWSWVRQPPGEGLEWIGFISYSGITNYNPSLQGRVTISRDNSKNTLYLQMNSLRAEDTAVYYCARSLARTTAMDYWGEGTLVTVSSASTKGPSVFPLAPSSKSTSGGTAALGCLVKDYFPEPVTVSWNSGALTSGVHTFPAVLQSSGLYSLSSVVTVPSSSLGTQTYICNVNHKPSNTKVDKKVEPKSCDKTHTCPPCPAPELLGDDSVFLFPPKPKDTLMISRTPEVTCVVIDVSEEDGDVKFNWYVDGVEVHNAKTKPREEQDNSTYRVVSVLTVLHQDWLNGKEYKCKVSNKALPRPIEKTISKAKGQPREPQVYTLPPSRDELTKNQVSLTCLVKGFYPSDIAVEWESNGQPENNYKTTPPVLDSDGSFFLYSKLTVDKSRWQQGNVFSCSVMHEALHNHYTQESLSLSP light: not shown |  | 32 nM | 250 nM | 2800 nM | 6.4 nM | 4.4 | 481
IL6R-BP556/IL6R-L (antibody, human IgG1, kappa, name in EU numbering, human IgG1) heavy: QVQLQESGPGLVKPSETLSLTCAVSGHSISHDHAWSWVRQPPGEGLEWIGFISYSGITNYNPSLQGRVTISRDNSKNTLYLQMNSLRAEDTAVYYCARSLARTTAMDYWGEGTLVTVSSASTKGPSVFPLAPSSKSTSGGTAALGCLVKDYFPEPVTVSWNSGALTSGVHTFPAVLQSSGLYSLSSVVTVPSSSLGTQTYICNVNHKPSNTKVDKKVEPKSCDKTHTCPPCPAPELLGDDSVFLFPPKPKDTLMISRTPEVTCVVIDVGEEDGEVKFNWYVDGVEVHNAKTKPREEQDNSTYRVVSVLTVLHQDWLNGKEYKCKVSNKALPRPIEKTISKAKGQPREPQVYTLPPSRDELTKNQVSLTCLVKGFYPSDIAVEWESNGQPENNYKTTPPVLDSDGSFFLYSKLTVDKSRWQQGNVFSCSVMHEALHNHYTQESLSLSP light: not shown |  | 43 nM | 300 nM | 5800 nM | 8.4 nM | 3.6 | 369
IL6R-BP540/IL6R-L (antibody, human IgG1, kappa, name in EU numbering, human IgG1) heavy: QVQLQESGPGLVKPSETLSLTCAVSGHSISHDHAWSWVRQPPGEGLEWIGFISYSGITNYNPSLQGRVTISRDNSKNTLYLQMNSLRAEDTAVYYCARSLARTTAMDYWGEGTLVTVSSASTKGPSVFPLAPSSKSTSGGTAALGCLVKDYFPEPVTVSWNSGALTSGVHTFPAVLQSSGLYSLSSVVTVPSSSLGTQTYICNVNHKPSNTKVDKKVEPKSCDKTHTCPPCPAPELLGDDSVFLFPPKPKDTLMISRTPEVTCVVIDVSEEDGPVKFNWYVDGVEVHNAKTKPREEQDNSTYRVVSVLTVLHQDWLNGKEYKCKVSNKALPRPIEKTISKAKGQPREPQVYTLPPSRDELTKNQVSLTCLVKGFYPSDIAVEWESNGQPENNYKTTPPVLDSDGSFFLYSKLTVDKSRWQQGNVFSCSVMHEALHNHYTQESLSLSP light: not shown |  | 96 nM | 210 nM | 4600 nM | 5.7 nM | 5.1 | 539
